Reference: patent publication US20250250350A1

Molecular target: Alkaline Phosphatase, Germ Cell (ALPG) expressed on K562-ALPG and K562-ALPG/MSLN target cells (UniProt P10696)
Sequence (P10696 20-503): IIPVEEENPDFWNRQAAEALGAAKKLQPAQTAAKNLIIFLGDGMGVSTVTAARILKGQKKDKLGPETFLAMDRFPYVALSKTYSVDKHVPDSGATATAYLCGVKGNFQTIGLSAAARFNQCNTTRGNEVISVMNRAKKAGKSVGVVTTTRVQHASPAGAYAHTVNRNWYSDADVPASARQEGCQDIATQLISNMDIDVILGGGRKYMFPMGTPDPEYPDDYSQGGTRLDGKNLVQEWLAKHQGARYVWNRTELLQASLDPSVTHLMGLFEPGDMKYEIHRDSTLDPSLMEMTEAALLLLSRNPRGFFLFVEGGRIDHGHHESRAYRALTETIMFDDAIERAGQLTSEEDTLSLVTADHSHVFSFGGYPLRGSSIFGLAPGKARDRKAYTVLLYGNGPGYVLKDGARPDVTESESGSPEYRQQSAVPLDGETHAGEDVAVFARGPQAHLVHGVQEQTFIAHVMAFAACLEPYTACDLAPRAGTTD

% of LG1 T cells CAR+ PrimeR+ (upper right quadrant) after 72 h with K562 ALPG high, 1:1: 0.043%
% of LG1 T cells CAR+ PrimeR+ (upper right quadrant) after 72 h with K562 ALPG low, 1:1: 0.25%
% of LG1 T cells CAR+ PrimeR+ (upper right quadrant), T cells alone, no ALPG cells (baseline): 1.11%
% of LG1 T cells CAR+ PrimeR- (upper left quadrant) after 72 h with K562 ALPG high, 1:1: 5.29%
% of LG1 T cells CAR+ PrimeR- (upper left quadrant) after 72 h with K562 ALPG low, 1:1: 5.88%
% of LG1 T cells CAR+ PrimeR- (upper left quadrant; FLAG APC vs myc PE), T cells alone, no ALPG cells (baseline): 0.12%
% of LG1 T cells PrimeR+ CAR- (lower right quadrant) after 72 h with K562 ALPG high, 1:1: 0.043%
% of LG1 T cells PrimeR+ CAR- (lower right quadrant) after 72 h with K562 ALPG low, 1:1: 0.44%
% of LG1 T cells PrimeR+ CAR- (lower right quadrant), T cells alone, no ALPG cells (baseline): 12%
B1: Myc-tag ALPG/P priming receptor: anti-ALPG/P scFv-CD8α hinge-Notch1 TMD-Notch1 STS-HNF1aDBD-p65 activation domain (protein, not shown: small tags and cut ends)
chain: DIQMTQSPSSLSASVGDRVTITCRASENIYSYVAWYQQKPGKAPKLLIYNAKSLASGVPSRFSGSGSGTDFTLTISSLQPEDFATYYCQHHYVSPWTFGGGTKLEIKGGGGSGGGGSGGGGSQVQLQESGPGLVKPSETLSLTCTVSGFSLTSYGVSWIRQPAGKGLEWIGVIWEDGSTNYHSALISRVTMSVDTSKNQFSLKLSSVTAADTAVYYCARPHYGSSYVGAMEYWGAGTTVTVSSATTTPAPRPPTPAPTIASQPLSLRPEACFMYVAAAAFVLLFFVGCGVLLSRKRRRQHGQLWFPEGFKVSEASKKKRREPLGEDSVGLKPLKNAMVSKLSQLQTELLAALLESGLSKEALLQALGEPGPYLLAGEGPLDKGESCGGGRGELAELPNGLGETRGSEDETDDDGEDFTPPILKELENLSPEEAAHQKAVVETLLQEDPWRVAKMVKSYLQQHNIPQREVVDTTGLNQSHLSQHLNKGTPMKTQKRAALYTWYVRKQREVAQQFTHAGQGGLIEEPTGDELPTKKGRRNRFKWGPASQQILFQAYERQKNPSKEERETLVEECNRAECIQRGVSPSQAQGLGSNLVTEVRVYNWFANRRKEEAFRHKLAMTCRDEFPTMVFPSGQISQASALAPAPPQVLPQAPAPAPAPAMVSALAQAPAPVPVLAPGPPQAVAPPAPKPTQAGEGTLSEALLQLQFDDEDLGALLGNSTDPAVFTDLASVDNSEFQQLLNQGIPVAPHTTEPMLMEYPEAITRLVTGAQRPPDPAPAPLGAPGLPNGLLSGDEDFSSIADMDFSALLSQISS
